Legend:
[1] = target: T1, ILT4-His (recombinant extracellular domain of human ILT4 fused to a poly-Histidine tag) (human, UniProt Q8N423 22-460); assay: SPR; ratio of KD to that of 1E1(G4) (the reference itself)
T1 construct: also called polyhistidine-tagged human ILT4; recombinant histidine tagged, extracellular domain of ILT4; not shown: poly-histidine tag

[2] = target: T1, ILT4-His (recombinant extracellular …); assay: SPR (Biacore T200): mAb captured by human Fc capture on CM5 chip, ILT4-His titrated; 1:1 model; n=2
[3] = target: T2, human ILT3 (two variants) expressed on mouse 3A9 T cells (human, UniProt Q8NHJ6 22-448); assay: flow cytometry on 3A9 T cell transfectants (two ILT3 variants)
T2 construct: whole, on cells; Two variants were tested

[4] = target: T3, human LILRA2 expressed on mouse 3A9 T cells (human, UniProt Q8N149 24-483); assay: flow cytometry on 3A9 T cell transfectants
T3 construct: whole, on cells
T3 sequence (Q8N149 24-483): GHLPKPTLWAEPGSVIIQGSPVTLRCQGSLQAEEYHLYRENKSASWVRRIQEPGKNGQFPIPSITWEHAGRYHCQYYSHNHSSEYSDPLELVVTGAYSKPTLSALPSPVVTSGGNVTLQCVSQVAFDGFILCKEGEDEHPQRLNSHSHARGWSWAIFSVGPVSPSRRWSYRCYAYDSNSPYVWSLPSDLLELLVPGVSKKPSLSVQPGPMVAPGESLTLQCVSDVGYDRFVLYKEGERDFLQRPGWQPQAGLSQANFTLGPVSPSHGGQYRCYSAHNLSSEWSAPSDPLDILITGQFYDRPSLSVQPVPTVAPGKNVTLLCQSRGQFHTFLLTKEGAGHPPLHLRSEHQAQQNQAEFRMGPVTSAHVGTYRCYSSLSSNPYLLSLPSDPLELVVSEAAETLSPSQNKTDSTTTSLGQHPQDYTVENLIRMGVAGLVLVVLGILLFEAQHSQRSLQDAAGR

[5] = target: T4, human ILT11 expressed on mouse 3A9 T cells (human, UniProt A6NI73 42-299); assay: flow cytometry on 3A9 T cell transfectants
T4 construct: whole, on cells
T4 sequence (A6NI73 42-299): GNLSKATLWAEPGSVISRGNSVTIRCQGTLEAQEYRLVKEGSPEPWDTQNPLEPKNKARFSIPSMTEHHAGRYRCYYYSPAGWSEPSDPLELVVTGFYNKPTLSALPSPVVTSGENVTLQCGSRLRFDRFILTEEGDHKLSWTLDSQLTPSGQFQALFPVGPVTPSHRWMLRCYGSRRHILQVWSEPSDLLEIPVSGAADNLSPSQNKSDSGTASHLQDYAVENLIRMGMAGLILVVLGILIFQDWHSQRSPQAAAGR

[6] = target: T5, human ILT5 expressed on mouse 3A9 T cells (human, UniProt O75022 24-631); assay: flow cytometry on 3A9 T cell transfectants
T5 construct: whole, on cells

[7] = target: T6, human ILT8 expressed on mouse 3A9 T cells (human, UniProt Q6PI73 24-481); assay: flow cytometry on 3A9 T cell transfectants
T6 construct: whole, on cells
T6 sequence (Q6PI73 24-481): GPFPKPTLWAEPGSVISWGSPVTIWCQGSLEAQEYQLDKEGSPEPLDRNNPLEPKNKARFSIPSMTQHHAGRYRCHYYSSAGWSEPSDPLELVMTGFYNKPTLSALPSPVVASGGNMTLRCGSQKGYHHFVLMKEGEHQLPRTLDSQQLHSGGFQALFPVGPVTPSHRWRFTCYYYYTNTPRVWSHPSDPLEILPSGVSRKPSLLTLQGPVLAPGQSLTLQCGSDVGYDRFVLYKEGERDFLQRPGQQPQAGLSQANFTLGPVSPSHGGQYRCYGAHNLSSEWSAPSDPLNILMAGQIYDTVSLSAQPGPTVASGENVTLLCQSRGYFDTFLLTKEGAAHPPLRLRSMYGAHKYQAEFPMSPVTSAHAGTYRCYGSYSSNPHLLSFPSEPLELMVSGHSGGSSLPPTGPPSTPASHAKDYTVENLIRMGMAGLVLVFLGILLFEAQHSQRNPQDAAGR

[8] = target: T7, human LILRA1 expressed on mouse 3A9 T cells (human, UniProt O75019 17-489); assay: flow cytometry on 3A9 T cell transfectants
T7 construct: whole, on cells
T7 sequence (O75019 17-489): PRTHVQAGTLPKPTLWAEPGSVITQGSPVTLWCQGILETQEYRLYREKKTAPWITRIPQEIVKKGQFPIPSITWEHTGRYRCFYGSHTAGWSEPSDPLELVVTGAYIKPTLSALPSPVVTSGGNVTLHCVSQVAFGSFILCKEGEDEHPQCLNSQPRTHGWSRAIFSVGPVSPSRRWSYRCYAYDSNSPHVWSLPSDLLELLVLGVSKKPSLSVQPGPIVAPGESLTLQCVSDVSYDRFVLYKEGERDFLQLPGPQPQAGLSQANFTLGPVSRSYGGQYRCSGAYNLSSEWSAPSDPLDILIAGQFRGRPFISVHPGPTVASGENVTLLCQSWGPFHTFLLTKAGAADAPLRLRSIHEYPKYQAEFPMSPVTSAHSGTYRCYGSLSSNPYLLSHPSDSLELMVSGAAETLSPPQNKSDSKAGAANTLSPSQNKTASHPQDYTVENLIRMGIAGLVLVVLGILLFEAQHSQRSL

[9] = target: T8, human ILT7 expressed on mouse 3A9 T cells (human, UniProt P59901 24-499); assay: flow cytometry on 3A9 T cell transfectants
T8 construct: whole, on cells
T8 sequence (P59901 24-499): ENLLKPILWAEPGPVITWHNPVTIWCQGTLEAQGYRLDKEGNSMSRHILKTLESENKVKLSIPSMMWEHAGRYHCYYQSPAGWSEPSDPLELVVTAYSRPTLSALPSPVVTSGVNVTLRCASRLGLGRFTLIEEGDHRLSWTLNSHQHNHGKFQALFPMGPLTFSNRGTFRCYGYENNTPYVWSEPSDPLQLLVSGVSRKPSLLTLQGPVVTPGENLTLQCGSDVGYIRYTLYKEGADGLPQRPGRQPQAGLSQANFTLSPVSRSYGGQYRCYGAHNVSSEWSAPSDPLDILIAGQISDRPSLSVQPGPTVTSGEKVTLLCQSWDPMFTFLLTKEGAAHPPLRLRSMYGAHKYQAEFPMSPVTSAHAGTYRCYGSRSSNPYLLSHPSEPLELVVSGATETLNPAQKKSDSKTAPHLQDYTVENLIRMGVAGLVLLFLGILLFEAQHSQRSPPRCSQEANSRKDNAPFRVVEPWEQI

[10] = target: T9, human LILRB5 expressed on mouse 3A9 T cells (human, UniProt O75023 24-590); assay: flow cytometry on 3A9 T cell transfectants
T9 construct: whole, on cells
T9 sequence (O75023 24-590): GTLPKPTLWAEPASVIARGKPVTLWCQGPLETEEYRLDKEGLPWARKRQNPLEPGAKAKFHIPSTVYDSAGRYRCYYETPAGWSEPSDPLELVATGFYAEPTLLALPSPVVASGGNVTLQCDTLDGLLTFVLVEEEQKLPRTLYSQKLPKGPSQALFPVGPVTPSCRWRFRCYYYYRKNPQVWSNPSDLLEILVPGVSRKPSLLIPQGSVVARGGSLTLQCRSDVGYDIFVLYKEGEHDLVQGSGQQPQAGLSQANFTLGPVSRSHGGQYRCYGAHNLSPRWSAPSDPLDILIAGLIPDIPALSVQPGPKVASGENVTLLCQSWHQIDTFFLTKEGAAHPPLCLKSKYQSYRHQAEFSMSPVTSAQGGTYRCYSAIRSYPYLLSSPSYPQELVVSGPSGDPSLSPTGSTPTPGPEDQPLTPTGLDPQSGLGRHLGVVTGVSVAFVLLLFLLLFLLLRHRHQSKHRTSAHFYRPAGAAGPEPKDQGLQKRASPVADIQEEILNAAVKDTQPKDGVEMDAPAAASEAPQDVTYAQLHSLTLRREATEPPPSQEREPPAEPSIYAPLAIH

[11] = target: T10, human ILT2 expressed on mouse 3A9 T cells (human, UniProt Q8NHL6 24-650); assay: flow cytometry on 3A9 T cell transfectants
T10 construct: whole, on cells
T10 sequence (Q8NHL6 24-650): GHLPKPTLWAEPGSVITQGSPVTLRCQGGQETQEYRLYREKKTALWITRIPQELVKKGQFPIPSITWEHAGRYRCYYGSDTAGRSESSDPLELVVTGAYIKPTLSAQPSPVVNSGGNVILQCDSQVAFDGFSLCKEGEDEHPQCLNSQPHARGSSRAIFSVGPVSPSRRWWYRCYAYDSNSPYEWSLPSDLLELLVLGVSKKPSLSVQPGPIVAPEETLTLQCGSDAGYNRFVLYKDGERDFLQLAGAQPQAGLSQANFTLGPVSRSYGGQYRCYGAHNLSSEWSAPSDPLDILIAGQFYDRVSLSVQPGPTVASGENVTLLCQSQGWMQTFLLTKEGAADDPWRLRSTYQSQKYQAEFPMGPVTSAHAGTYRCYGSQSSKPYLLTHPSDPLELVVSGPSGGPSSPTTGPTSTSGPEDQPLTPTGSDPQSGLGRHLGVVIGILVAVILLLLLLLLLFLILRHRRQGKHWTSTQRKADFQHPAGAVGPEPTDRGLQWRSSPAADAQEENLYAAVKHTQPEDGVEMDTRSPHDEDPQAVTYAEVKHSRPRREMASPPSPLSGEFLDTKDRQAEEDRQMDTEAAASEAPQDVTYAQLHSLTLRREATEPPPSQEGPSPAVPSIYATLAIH

[12] = target: T11, recombinant human ILT4 antigen chemically coupled to Luminex beads (ILT4/Fc) (human, UniProt Q8N423 22-460); assay: Luminex ligand blocking assay: bead-coupled ILT4 pre-incubated with antibody (0.5-9,000 ng/mL), then 50 nM biotinylated HLA-G/Fc
T11 construct: also called Luminex bead-coupled ILT4/Fc; not shown: Fc part
T11 sequence (Q8N423 other isoform, or with tags, fused parts or gaps): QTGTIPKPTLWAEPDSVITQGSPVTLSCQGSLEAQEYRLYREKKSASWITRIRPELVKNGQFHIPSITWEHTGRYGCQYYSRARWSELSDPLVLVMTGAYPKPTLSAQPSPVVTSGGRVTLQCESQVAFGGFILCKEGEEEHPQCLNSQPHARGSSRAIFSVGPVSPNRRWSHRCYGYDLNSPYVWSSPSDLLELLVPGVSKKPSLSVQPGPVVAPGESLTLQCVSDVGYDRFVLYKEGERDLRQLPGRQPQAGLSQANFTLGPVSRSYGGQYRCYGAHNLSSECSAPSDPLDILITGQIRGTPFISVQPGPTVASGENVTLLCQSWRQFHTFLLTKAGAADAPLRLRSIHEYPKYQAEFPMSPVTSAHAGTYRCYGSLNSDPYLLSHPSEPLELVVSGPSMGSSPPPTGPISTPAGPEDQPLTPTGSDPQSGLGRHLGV

[13] = target: T12, human ILT4 expressed on CHO cells (CHO/ILT4 cell line) (human, UniProt Q8N423 22-597); assay: cell-based ligand blocking assay: CHO/ILT4 cells pre-incubated with antibody (1-20,000 ng/mL), then biotinylated HLA-G/Fc
T12 construct: also called CHO/ILT4+ cells; CHO-expressed ILT4
T12 sequence (Q8N423 other isoform, or with tags, fused parts or gaps): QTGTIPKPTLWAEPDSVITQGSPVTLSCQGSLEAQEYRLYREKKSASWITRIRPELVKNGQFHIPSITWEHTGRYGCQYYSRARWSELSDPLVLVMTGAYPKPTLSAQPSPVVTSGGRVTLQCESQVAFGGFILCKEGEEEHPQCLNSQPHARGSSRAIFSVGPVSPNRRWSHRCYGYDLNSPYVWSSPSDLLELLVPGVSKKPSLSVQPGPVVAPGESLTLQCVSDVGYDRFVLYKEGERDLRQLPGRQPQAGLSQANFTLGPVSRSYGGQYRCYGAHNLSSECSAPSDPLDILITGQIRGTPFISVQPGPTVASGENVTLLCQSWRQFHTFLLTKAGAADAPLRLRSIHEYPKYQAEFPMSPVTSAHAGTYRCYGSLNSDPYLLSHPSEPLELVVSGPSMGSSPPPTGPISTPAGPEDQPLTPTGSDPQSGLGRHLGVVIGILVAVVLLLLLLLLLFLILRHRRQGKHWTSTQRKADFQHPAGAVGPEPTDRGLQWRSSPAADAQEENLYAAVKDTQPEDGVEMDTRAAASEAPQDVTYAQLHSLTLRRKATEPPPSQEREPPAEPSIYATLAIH

B1: 1E1(G4) (antibody, human IgG4 S228P, lambda, V domains shown)
VH: EVQLQQWGAGLLKPSETLSLTCAVYGGSFSGYYWSWIRQPPGKGLEWIGEINHAGSTNYNPSLKSRVTISVDTSKNQFSLKLSSVTAADTAVYYCARLPTRWVTTRYFDLWGRGTLVTVSS
VL: ESVLTQPPSVSGAPGQRVTISCTGSSSNIGAGYDVHWYQQLPGTAPKLLIYGDSNRPSGVPDRFSVSKSGASASLAITGLQAEDEADYYCQSFDNSLSAYVFGGGTQLTVLG
notes: also called 1E1 VH Q1E, S54A/VL Q1E, N53D IgG4 S228P/Lambda
For B1, the “KD Ratio” value [1] was 1, the Kd [2] was 17 nM and the koff [2] was 0.009 s⁻¹. B1: no binding (tested: 10 ug/mL) [3]; no binding (tested: 10 ug/mL) [4]; no binding (tested: 10 ug/mL) [5]. B1: no binding (tested: 10 ug/mL) [6]; no binding (tested: 10 ug/mL) [7]; no binding (tested: 10 ug/mL) [8]. B1: no binding (tested: 10 ug/mL) [9]; no binding (tested: 10 ug/mL) [10]; no binding (tested: 10 ug/mL) [11].

B2: 3G7 (antibody, V domains shown)
VH: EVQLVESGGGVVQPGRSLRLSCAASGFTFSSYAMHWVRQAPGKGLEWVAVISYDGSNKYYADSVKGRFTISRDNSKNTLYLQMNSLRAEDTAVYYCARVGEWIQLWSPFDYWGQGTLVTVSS
VL: DIQMTQSPSSVSASVGDRVTITCRASQGISSWLAWYQQKPGKAPKFLIYAASSLQSGVPSKFSGSGSGTDFTLTISSLQPEDFATYYCQQYNSYPPTFGGGTKVEIKR
notes: hIgG4 variant in the Luminex and cell assays; also called 3G7 (hIgG4 variant)
An IC50 [12] of 0.04 µg/mL and an IC50 [13] of 0.374 µg/mL were found for B2 in this work.

B3: 2C1 (antibody, V domains shown)
VH: EVQLVQSGAEVKKPGASVKVSCKVSGYTLTELSMHWVRQAPGKGLEWMGGFDPEDGETIYAQKFQGRVTMTEDTSTDTAYMELSSLRSEDTAVYYCARAGPLYTIFGVVIIPDNWFDPWGQGTLVTVSS
VL: ESVLTQPPSVSGAPGQRVTISCTGSSSNIGAGYDVHWYQQLPGTAPKLLIYGNSNRPSGVPDRFSGSKSGTSASLAITGLQAEDEADYYCQSYDSSLSGSGVVFGGGTQLIILG
notes: hIgG4 variant in the Luminex and cell assays; also called 2C1 (hIgG4 variant)
An IC50 [12] of 0.0102 µg/mL and an IC50 [13] of 0.0561 µg/mL were found for B3 in this work.

B4: 2A6 (antibody, V domains shown)
VH: EVQLVQSGAEVKKPGSSVKVSCKASGGTFSSYAISWVRQAPGQGLEWMGGIIPIFGTANYAQKFQGRVTITADESTSTAYMELSSLRSEDTAVYYCARYFDSSGWYKGGAFDIWGQGTMVTVSS
VL: QSVLTQPSSLSASPGASASLTCTLRSGINVDTYRIHWYQQKPGSPPQYLLRYKSDSDKHQGSGVPSRFSGSKDPSANAGILLISGLQSEDEADYYCAIWYSSTWVFGGGTQLTVLG
notes: hIgG4 variant in the Luminex and cell assays; also called 2A6 (hIgG4 variant)
An IC50 [12] of 0.0177 µg/mL and an IC50 [13] of 0.233 µg/mL were found for B4 in this work.

B5: 1E1 (hIgG4 variant) (antibody)
heavy: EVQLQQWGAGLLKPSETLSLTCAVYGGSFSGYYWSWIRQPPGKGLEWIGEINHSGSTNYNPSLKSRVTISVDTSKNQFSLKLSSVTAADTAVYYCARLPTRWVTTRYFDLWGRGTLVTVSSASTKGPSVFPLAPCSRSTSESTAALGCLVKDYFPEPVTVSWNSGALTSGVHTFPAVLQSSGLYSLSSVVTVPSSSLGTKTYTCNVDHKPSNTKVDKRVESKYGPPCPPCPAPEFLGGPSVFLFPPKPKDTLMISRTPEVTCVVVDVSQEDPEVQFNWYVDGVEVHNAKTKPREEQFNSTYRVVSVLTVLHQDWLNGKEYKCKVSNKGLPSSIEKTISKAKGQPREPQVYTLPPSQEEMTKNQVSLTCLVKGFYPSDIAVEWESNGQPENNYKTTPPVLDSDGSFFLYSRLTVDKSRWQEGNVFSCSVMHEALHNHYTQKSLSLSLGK
light: ESVLTQPPSVSGAPGQRVTISCTGSSSNIGAGYDVHWYQQLPGTAPKLLIYGNSNRPSGVPDRFSVSKSGASASLAITGLQAEDEADYYCQSFDNSLSAYVFGGGTQLTVLGQPKAAPSVTLFPPSSEELQANKATLVCLISDFYPGAVTVAWKADSSPVKAGVETTTPSKQSNNKYAASSYLSLTPEQWKSHRSYSCQVTHEGSTVEKTVAPTECS
notes: The chain assignment is uncertain
An IC50 [12] of 0.0192 µg/mL and an IC50 [13] of 0.0984 µg/mL were found for B5 in this work.

— patent publication US20220002403A1 (Merck Sharp & Dohme, published 2022)
